According to the DeepSol protein solubility set:

Experiment: soluble on expression in E. coli; label from the status in PepcDB or PDB records

Sequence | soluble on expression in E. coli
MAEQRFCVDYAKRGTAGCKKCKEKIVKGVCRIGKVVPNPFSESGGDMKEWYHIKCMFEKLERARATTKKIEDLTELEGWEELEDNEKEQITQHIADLSSKAAGTPKKKAVVQAKLTT | soluble
MKSNPKYFLMNDVERQSKYSPKYVPNNSLKERILEFLDYYIAPLKLYLLSYPMPDCLWDNRKLRLKASGVQVTPSSEPVHIDDRLIHISQKQPSE | not soluble
MYKNNFENYMNLDIYKDIEEIRAALEHLGAKKILLQLPDGLKPEVYHYFNYLSANYNVVISSSPVYGACDIGPSSIYDKVDAIVQIGHSPMPNVKYPKPTIFVEHHYNARISNIDTSLLEGKYDRIGLLFSVQYKEVADEVRKIFENKGFTVIIGKKDGRMAYDGQVLGCNFSSVHSISYDVDAYVLVSTGQFHGIGAQLSTEREVFVLDLNDYKLHSMKDEADKFIRKRYAQIFRAKEARKICIISDTRIGQRRERLARIILRQVQQMGLEGILAVTDNISNQDLENMRCDAVVYTGCPRVPIDDQQKFTMPLLTPAEFEMGFVKNSNRYVLDEIVSVDDPADKLEHHHHHH | not soluble
MDQIRQLAQWIKEANTIAVLTGAGMSTESGIPDFRSENGLYAQEDNVEYYLSEYYYKKDPVDFWRRFKRMFSLKMMGGFAPNDGHRFLRWLEEMGKTVTILTQNIDGLHTKAGSTNVIELHGTLQTATCPSCGNKYDLSFINRHEVPRCEKCQTIVKPDVVLFGGLVPRMEEAFAAAAASDLLLAMGTSLEVAPVNQIPFYVAAESPATRKVLINKTATRMDGMFDLVIYGGIGKTVASVRKQIQAE | soluble
MSLIDPKRARLPIIRQCTLLRLNRSGVYYRSVPQSEANLELMRLIDAQFLETPYYGSRQMTWHLRRLGHEVGRKRVRRLMAIMGLRAIYQKPRTSVPHPEHRKYPYLLRDLVIDRPNQVWCSDITYIPMKRGFLYLVAIMDWFTRKVLSWRLSNTMDAEFCIEALRDALMRYGPPEIFNTDQGSQFTTPRFTGILEERQIRISMDGRGRWLDNVFIERLWRSLKYECVYLHAFETESELRVGLTKWITHYNGQRPHTALAGRTPDEAYHGVPTPSGPGLTPDQMANSNAVRMAAEGHHHHHH | soluble
MGSDKIHHHHHHMAAKPPLTLYLAAPRGFCAGVDRAIKIVEMALEKWGAPVYVRHEIVHNKFVVDGLRDKGAVFVEELEECPDDRPVIFSAHGVPKSVPAAAEARQMVYVDATCPLVSKVHIEAQRHAEAGLQMIMIGHKGHPETVGTMGQLPEGEVLLVETVEDVAQVEVRDPERLAFVTQTTLSVDDTKDIVAALQARFPAIVGPHKEDICYATTNRQEAVKEVAPKADALLVVGAPNSSNSRRLVEVGAKNGCSYAQLVQRAENIDWRALEGIQSIAITAGASAPELLVNEVIDAFRDRYEVTVELVETAVERVEFKVPRVLRTA | not soluble
MGSWSEKAFSASKLDDAIAAKFGSLPIQESTAIQIKAPEIAENGAFVPVTVATSIPGATNISIFTPANFSPMVASFDVLPRMKPEVSLRMRMAKTENLVVVVQAGGKLYRAVREVKVTIGGCGG | soluble
NAMYTITDIAPTDAEFIALIAALDAWQETLYPAESNHLLDLSQLPPQTVIALAIRSPQGEAVGCGAIVLSEEGFGEMKRVYIDPQHRGQQLGEKLLAALEAKARQRDCHTLRLETGIHQHAAIALYTRNGYQTRCAFAPYQPDPLSVFMEKPLFADLRSAAL | soluble
AFSGTWQVYAQENYEEFLKALALPEDLIKMARDIKPIVEIQQKGDDFVVTSKTPRQTVTNSFTLGKEADITTMDGKKLKCTVHLANGKLVTKSEKFSHEQEVKGNEMVETITFGGVTLIRRSKRV | soluble
MKSIYYLSADDLFQMNTFLIQTYSPAEQIGIKDRNALEMASNQPAQFVFDVDLYPTIEEKAAILMINIATKHCFYNANKRTAVMATDLFLQLNGYDFQLDTQEGVDLLVFIATYRSDFDQLKNDVSKVIRAKLNHTSSHLEHHHHHH | soluble
MKYFNVGKIVNTQGLRGEVRVLSVTDFADERFKKGSQLALFDKKDHFAMTVEIASHRKHKNFDIVKFKGLYHINDVEKYRDFTLKVTEDHLADLEDGEFYYHEIIGLDVYENDILIGQVKEILQPGANDVWVVKRKGKKDLLLPYIPSVILKVDVPNGRIDVTVLEGLDDENLEHHHHHH | soluble
YIKMISNAKRSILIQTPYFIPDASLLDALRIACLSGIDVNIMIPNKPDHAFVYWATLSYIGDLLKAGATVYIYDNGFIHAKTIVVDDEIASVGTANIDVRSFRLNFEVNAFIYDITIAKKLVSTFKEDLLVSRKFTYEEYLQRPLWIR | not soluble
MLSIKDLHVSVEDKAILRGLSLDVRPGEVHAIMGPNGSGKSTLSATLAGREDYEVTGGTVEFKGKDLLALSPEDRAGEGIFMAFQYPVEIPGVSNQFFLQTALNAVRSYRGQETLDRFDFQDLMEEKIALLKMPEDLLTRSVNVGFSGGEKKRNDILQMAVLEPELCILDESDSGLDIDALKVVADGVNSLRDGKRSFIIVTHYQRILDYIKPDYVHVLYQGRIVKSGDFTLVKQLEEQGYGWLTEQQ | not soluble
MSLEVIKHDGPGRLGVIRLEPPVQTPALAGVDFTISPFNSYFNPKEYHDYDFNLAPSIPLSYYTPDEVIEKALKRIETVDYSKFNTFYFPALKRDKYYPRFVELIEENDFDAIYIGNSKVMIKDYRGFVATLRILREKFPNAVLITDLEPFFYPLAVYLGVDAFDVRSLKIYSYEGLGFTPFSPVIWDRPNDPIEFAREMIKIIKIAIQEGKLRYLVENFLPTVMNVGILRIADKEHGDYLEKYTPVHDKTVVFISEHSISRPEVFRWRKRIEERFEPPKGIDLLLIFPCSAKKPYSRSRSHMMYRKVMKEALGEKVHRVHELVVTSPYGVVPREWEWLAKYDIVVTGHWSESEVRFAGELLAQTIEKYPDIPIVAHVEGGYREAVKYAMELVNRDVIFTAVGSSTISKESLDKLKKTLKEFDLRDAEKDYRRYRFYENVRKVFDYYFGLGAGEAVLPENAQIVGSKMLRLIVNNSQTGTFQEGVISVTPFGMQRIYDKLNSYWVEVDFDIRGDVFAAGVERADEGIRPNDIVGIVRDGRVVAVGRAVLSGEEMVRAKKGIAVRVRKRVKNKEGHHHHHH | soluble
MSLSYLPGTTFEGQWESLYFGNNIKERLYSYATISLKIARFKQTGDSNQEDITTLITNNKLLLVHGPPGTGKTTLCKALCQKLSVRREFSDGSDTIDTNYKGIIIELSCARIFSKWFGESSKNISIVFKDIEELLKVNEGRGIFICLLIDEVEAIASSRTNLSSRNESTDGIRVVNTLLTQLDRLKKYHNFLALATSNLLDSLDDAFVDRADGVFYVGNPTAEGILHILKVCIEEMITSGIILFHARSTGVKFFNKYQDILRKIAIKCSVCFFLLFYFYDSFSFFPSEGHHHHHH | soluble
MLRKGVSFVGQAVQQTLKTQKNLRIQRFSATASQSSEEVNYEIRKDGKRLRGADYEEIVLTSIAGEDKTQIPKGAFDVLLKEYDDLQAESLDFKDKYQRSLAETENVRRRGIKQTDDAKVFAIQSFCKDLLEVSDILDIAVKSVKPEDLESGGKALKDLFEGVSMTRTVMAKTFAKHGLVTVDPTNEKFDPNLHEAVFQIPSANAKQPVGHIEVCTKIGYSLKERPIRPAQVGVVSK | not soluble
MGSDKIHHHHHHMTLLIVGATGTLGRQVARRAIDEGYKVRCLVRSSKKAAFLKEWGAELVPGNLRYPDTLAAALVGVTQVIDASTSRPTDSLSIKQVDWEGKVALIQAAKAAGVERFIFFSILDADKYPEVPLMEIKRCTELFLAESGLNYTILRLAGFMQGLIGQYGIPILEGQPVWVTGNSSPIAYMDTQDIAKFAIRALSVPETENQAFPVVGTRAWSAEEIINLCERLSGKDARVTRMPISLLRAVRGLMRSFQWGWNVADRLAFTEVLASGKQLNASMDEVYTVFGLDPQQTTTLESYLQEYFSRIMKKLKEVDYQKNKNKKQKPKKTPFKQSSKANSQ | not soluble
EKKYIVGFKQTMSAMSSAKKKDVISQKGGKVEKQFKYVNAAAATLDEKAVKELKKDPSVAYVEEDHIAHEY | soluble
MGSDKIHHHHHHMKTRDKIIQASIELFNEQGERNVTTNHIAAHLAISPGNLYYHFRNKEDIILSIYEEYARSLLLETLPKVSSEVKPLDSLILYMDSVFQTTMKFRFFYSNLPVLLDKNPILREKYVEVQQSISERVSQLLISLRAADYIDFNDDELADIVSILRLINTFWVSFHQTQTIVNEVNDSVFYQGVLKILVILRPYTKAHAISELNHARDVYQQRYREEAETA | not soluble
